# Source: patent publication EP0866075B1, “Method to treat microbial infections by uncoupling of phosphotransferase system and appropriate agents therefor” (Arpida AG,, priority 1997, dated 1998)
# Target: enzyme I (phosphoenolpyruvate-protein phosphotransferase, EC 2.7.3.9) of the E. coli phosphotransferase system (E. coli), P08839
# Assay: cell-based or functional assay
binder,measurement,value
SSLRGHRWVY (modifications not checked) [peptide 17 …],inhibition IC50,120 µM
same,uncoupling Pi/peptide (x IC50/h) (Pi/peptide (x IC50/h)),50.3
